As usually defined, the Kd is the constant that tells how readily two partners part at equilibrium.

We go through four molecules from publication doi:10.1101/2020.09.14.296129 (bioRxiv, 2020).

This test has as its target calmodulin (calcium-loaded, holo-CaM) (UniProt P0DP23). The experiment in a line: other fluorescence titration + ITC.

B1: P454 H477S-I479A peptide (peptide)
peptide: ASAHWGQRALQGAQAVAAAQRLVSAAALMTQ
On to B1, for which the “fold decrease of affinity for CaM against P454” value (from here on “fold decrease of affinity”) was about 20 fold.

B2: P454_(R12E) peptide (P454 with R461 and R474 substituted by glutamate) (peptide)
peptide: ASAHWGQEALQGAQAVAAAQELVHAIALMTQ
For B2, the Kd is 22.7 µM.

B3: P454 L475A-H477S-I479A peptide (peptide)
peptide: ASAHWGQRALQGAQAVAAAQRAVSAAALMTQ
Turning to B3, the “fold decrease of affinity” value was about 20 fold.

B4: P454 W458A-L463A peptide (peptide)
peptide: ASAHAGQRAAQGAQAVAAAQRLVHAIALMTQ
As to B4, the “fold decrease of affinity” value is 4 fold.
